The values below come from article PMC12225687.

Targets include 1G4 TCR (human); 1G4-c50 TCR (human); 1G4-c53c50 TCR (human).
What all share (assay): flow cytometry on cells; PE-labelled pMHC multimer (HLA-A*02:01 with the … peptide) stained on Jurkat J1601 cells (human CD8α/β, TCRα/β CRISPR-KO) electroporated with TCR RNA, after overnight incubation; read-out % multimer+CD8+ cells, averages of two independent replicates
In general terms: A flow cytometer gives signals particle by particle.

As to “HLA-A*02:01 with the NY-ESO-1 157-165 peptide …, PE-labelled multimer (from UniProt P61769 21-119) (peptide-MHC)”, the % of multimer+CD8+ Jurkat cells in the test with 1G4 TCR (human) amounted to 90.9%; in the test with 1G4-c50 TCR (human), 99.6%; with 1G4-c53c50 TCR (human), 99.1%.
